Laboratory results from patent publication US20240182563A1 (GENOME, published 2024).

T1: human CNTN4 antigen expressed on the cell membrane of 293FT cells (human) (UniProt Q8IWV2)
T1 sequence (looked up): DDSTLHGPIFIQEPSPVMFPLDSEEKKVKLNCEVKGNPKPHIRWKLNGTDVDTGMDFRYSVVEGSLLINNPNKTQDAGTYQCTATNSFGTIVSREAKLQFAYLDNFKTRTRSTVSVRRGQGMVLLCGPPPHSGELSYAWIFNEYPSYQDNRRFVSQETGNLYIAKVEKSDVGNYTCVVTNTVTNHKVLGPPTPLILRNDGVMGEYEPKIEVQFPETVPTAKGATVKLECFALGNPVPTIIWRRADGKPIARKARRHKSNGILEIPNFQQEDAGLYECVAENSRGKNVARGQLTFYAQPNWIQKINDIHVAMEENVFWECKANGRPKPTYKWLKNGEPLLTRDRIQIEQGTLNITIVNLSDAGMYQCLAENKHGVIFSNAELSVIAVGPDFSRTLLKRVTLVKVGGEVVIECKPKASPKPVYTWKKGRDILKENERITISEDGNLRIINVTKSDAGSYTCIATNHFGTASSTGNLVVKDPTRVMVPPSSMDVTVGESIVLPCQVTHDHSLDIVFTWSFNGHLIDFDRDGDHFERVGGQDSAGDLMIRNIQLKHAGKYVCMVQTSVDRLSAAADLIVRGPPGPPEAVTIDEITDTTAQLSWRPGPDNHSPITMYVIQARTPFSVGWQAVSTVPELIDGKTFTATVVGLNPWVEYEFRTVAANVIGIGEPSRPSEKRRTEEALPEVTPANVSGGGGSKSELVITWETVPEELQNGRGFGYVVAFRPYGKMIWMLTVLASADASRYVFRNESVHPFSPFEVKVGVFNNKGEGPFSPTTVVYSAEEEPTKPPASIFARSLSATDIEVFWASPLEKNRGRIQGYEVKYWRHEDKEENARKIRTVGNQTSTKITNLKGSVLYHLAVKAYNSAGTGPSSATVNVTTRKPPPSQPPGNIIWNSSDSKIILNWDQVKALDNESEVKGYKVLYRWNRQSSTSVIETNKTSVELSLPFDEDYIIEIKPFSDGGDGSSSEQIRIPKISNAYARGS

T2: mouse CNTN4-rabbit Fc (mouse; rabbit, UniProt Q69Z26 19-1000, limits assumed)
T2 construct: not shown: rabbit Fc
T2 sequence (looked up): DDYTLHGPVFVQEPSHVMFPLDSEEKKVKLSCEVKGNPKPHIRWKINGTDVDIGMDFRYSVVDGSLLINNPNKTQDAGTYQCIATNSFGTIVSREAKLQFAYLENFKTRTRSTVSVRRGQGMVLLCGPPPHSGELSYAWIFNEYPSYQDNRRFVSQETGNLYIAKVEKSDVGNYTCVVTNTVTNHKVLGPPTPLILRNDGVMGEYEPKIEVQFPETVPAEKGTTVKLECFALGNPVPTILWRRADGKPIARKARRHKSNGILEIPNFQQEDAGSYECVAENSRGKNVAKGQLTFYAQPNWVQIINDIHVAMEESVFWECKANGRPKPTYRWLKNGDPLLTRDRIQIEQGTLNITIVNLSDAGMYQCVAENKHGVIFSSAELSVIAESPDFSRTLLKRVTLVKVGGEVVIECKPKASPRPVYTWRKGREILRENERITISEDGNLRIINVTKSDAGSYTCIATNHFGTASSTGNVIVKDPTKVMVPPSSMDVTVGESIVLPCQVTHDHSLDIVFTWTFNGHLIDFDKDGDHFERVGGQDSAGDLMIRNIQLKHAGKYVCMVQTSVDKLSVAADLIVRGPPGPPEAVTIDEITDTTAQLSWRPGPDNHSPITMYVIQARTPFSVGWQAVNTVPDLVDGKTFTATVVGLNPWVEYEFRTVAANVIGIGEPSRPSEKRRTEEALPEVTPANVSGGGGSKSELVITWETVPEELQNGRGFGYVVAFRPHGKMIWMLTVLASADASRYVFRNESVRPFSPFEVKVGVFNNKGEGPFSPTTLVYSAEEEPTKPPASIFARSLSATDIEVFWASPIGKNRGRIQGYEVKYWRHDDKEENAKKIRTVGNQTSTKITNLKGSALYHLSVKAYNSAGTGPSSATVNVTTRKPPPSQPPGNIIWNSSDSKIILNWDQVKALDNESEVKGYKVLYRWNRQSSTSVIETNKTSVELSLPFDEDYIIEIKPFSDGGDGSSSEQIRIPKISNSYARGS

T3: human CNTN4-rabbit Fc (human; rabbit, UniProt Q8IWV2 19-1000, limits assumed)
T3 construct: not shown: rabbit Fc
T3 sequence (looked up): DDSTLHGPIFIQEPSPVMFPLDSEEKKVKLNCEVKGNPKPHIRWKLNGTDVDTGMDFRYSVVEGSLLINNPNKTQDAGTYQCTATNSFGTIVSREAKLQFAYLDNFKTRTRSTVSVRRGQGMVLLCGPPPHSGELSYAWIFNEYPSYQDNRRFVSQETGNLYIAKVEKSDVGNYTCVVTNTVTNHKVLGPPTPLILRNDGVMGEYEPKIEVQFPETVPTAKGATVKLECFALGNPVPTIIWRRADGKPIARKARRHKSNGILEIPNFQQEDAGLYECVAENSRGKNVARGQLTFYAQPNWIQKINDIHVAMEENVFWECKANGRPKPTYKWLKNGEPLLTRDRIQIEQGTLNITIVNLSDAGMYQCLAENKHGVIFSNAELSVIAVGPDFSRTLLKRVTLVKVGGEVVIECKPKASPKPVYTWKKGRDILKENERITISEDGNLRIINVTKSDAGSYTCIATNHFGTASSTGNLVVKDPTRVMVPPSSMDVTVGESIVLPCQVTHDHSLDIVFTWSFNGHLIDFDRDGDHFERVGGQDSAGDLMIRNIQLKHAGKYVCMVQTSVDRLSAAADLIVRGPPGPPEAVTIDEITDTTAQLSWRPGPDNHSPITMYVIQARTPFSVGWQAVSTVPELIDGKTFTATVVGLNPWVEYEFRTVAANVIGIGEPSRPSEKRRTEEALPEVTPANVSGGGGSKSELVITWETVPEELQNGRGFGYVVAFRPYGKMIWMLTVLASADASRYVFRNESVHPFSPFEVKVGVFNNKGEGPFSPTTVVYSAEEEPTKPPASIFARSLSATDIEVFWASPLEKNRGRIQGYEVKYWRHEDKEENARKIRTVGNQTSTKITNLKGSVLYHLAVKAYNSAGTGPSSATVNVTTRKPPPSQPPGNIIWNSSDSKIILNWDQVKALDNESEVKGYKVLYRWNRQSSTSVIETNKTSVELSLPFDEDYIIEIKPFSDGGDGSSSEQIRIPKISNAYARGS


Tests used:
[1] = molecular target: T1, human CNTN4 antigen expressed on the cell membrane of 293FT cells (human); experiment: FACS, 293FT cells transfected with human CNTN4, 40 ug/mL, anti-hCk-PE
mouse CNTN4-rabbit Fc = molecular target: T2, mouse CNTN4-rabbit Fc; experiment: ELISA, plate coated with antigen-rabbit Fc, anti-human kappa-HRP
human CNTN4-rabbit Fc = molecular target: T3, human CNTN4-rabbit Fc; experiment: as above

| Shift % [1] | EC50 (mouse CNTN4-rabbit Fc) | EC50 (human CNTN4-rabbit Fc) | Binder |
| --- | --- | --- | --- |
| 18% | 0.75 nM | 0.75 nM | anti-CNTN4 scFv-hCk S134 (scFv, part only; not given: linker and kappa constant region, V domains shown, not shown: another chain or arm of the molecule; a dimerising Fc or GST; small tags and cut ends) VL: ALTQPSSVSANPGETVKITCSGGTYSYGNYYYGWYQQKSPGSAPVTVIYNNNNRPSDIPSRFSGSGSGSTGTLTITGVRAEDEAVYYCGGYDGSTDVFGAGTTLTVL VH: AVTLDESEGGLQTPGGALSLVCKASGFTFSSFNMFWVRQAPGKGLEYVAEISGGGGSTWYAPAVKGRATISRDNGQSTVRLQLNNLRAEDTGTYYCAKSADTWSYGAATIDAWGHGTEVIVSS |
| 15.8% | 1.06 nM | 2.37 nM | anti-CNTN4 scFv-hCk S138 (scFv, part only; not given: linker and kappa constant region, V domains shown, not shown: another chain or arm of the molecule; a dimerising Fc or GST; small tags and cut ends) VL: ALTQPSSVSANPGETVNITCSGGGSYAGSYYYGWYQQKAPGSAPVTVIYDSTNRPSNIPSRFSGSLSGSTNTLTITGVRAEDEAVYYCGGYDGSTDVFGAGTTLTVL VH: AVTLDESEGGLQTPGGALSLVCKASGFTFSSFNMFWVRQAPGKGLEYVAEISGGGGSTWYAPAVKGRATISRDNGQSTVRLQLNNLRAEDTGTYYCAKSADTWSYGAATIDAWGHGTEVIVSS |
| 15.3% | 0.52 nM | 0.41 nM | anti-CNTN4 scFv-hCk S137 (scFv, part only; not given: linker and kappa constant region, not shown: a dimerising Fc or GST) scFv, part: ALTQPSSVSANPGETVKITCSGGSSYGWYQQKSPGSAPVTVIYDNTNRPSNIPSRFSGSKSGSTNTLTITGVQAEDEAVYYCGGYDGSTDAFGAGTTLTVLAVTLDESEGGLQTPGGALSLVCKASGFTFSSFNMFWVRQAPGKGLEYVAEISGGGGSTWYAPAVKGRATISRDNGQSTVRLQLNNLRAEDTGTYYCAKSADTWSYGAATIDAWGHGTEVIVSS |
